Blank lines part the entries; values can stand above or below the binder they belong to.
Legend:
Test in all cases: two-hybrid library CCNG1;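 further: natural log of median RNA to DNA barcode read ratio; higher means stronger binding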
4H3185-bA = target: T1, 4H3185-bA
T1 chain: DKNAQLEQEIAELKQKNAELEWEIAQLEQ

4H331-bA = target: T2, 4H331-bA
T2 chain: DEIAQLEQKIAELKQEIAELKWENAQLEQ

4H3354-bA = target: T3, 4H3354-bA
T3 chain: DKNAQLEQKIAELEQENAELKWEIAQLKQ

4H338-bA = target: T4, 4H338-bA
T4 chain: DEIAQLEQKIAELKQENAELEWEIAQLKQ

4H3427-bA = target: T5, 4H3427-bA
T5 chain: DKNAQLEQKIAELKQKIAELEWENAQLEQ

4H3782-bA = target: T6, 4H3782-bA
T6 chain: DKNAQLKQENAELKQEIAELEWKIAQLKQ

4H3843-bA = target: T7, 4H3843-bA
T7 chain: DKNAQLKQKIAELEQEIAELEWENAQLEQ

4H3855-bA = target: T8, 4H3855-bA
T8 chain: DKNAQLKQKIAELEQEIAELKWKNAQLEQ

4H4001-bA = target: T9, 4H4001-bA
T9 chain: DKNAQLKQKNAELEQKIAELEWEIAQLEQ

4H454-bA = target: T10, 4H454-bA
T10 chain: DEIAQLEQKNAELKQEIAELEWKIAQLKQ

4H568-bA = target: T11, 4H568-bA
T11 chain: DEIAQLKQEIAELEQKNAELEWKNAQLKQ

4H607-bA = target: T12, 4H607-bA
T12 chain: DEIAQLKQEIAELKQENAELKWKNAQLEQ

4H687-bA = target: T13, 4H687-bA
T13 chain: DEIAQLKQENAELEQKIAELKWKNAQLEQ

4H717-bA = target: T14, 4H717-bA
T14 chain: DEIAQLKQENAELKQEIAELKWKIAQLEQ

4H72-bA = target: T15, 4H72-bA
T15 chain: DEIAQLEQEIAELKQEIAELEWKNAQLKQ

4H754-bA = target: T16, 4H754-bA
T16 chain: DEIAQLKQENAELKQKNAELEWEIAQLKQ

4H797-bA = target: T17, 4H797-bA
T17 chain: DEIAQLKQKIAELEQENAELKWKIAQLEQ

4H883-bA = target: T18, 4H883-bA
T18 chain: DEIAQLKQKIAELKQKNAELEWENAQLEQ

4H908-bA = target: T19, 4H908-bA
T19 chain: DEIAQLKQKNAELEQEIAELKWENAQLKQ

4H918-bA = target: T20, 4H918-bA
T20 chain: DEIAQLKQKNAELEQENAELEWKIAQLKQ

4H953-bA = target: T21, 4H953-bA
T21 chain: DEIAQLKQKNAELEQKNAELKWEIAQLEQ

4H967-bA = target: T22, 4H967-bA
T22 chain: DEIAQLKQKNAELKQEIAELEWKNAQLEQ

P3A-bA = target: T23, P3A-bA
T23 chain: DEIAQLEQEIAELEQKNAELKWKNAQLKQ

P3A-bN = target: T24, P3A-bN
T24 chain: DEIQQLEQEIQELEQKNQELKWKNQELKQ

P4A-bN = target: T25, P4A-bN
T25 chain: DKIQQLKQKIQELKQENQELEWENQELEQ

P5A-bN = target: T26, P5A-bN
T26 chain: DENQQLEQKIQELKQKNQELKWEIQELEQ

P5A = target: T27, P5A
T27 chain: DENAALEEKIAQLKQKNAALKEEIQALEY

P6A-bN = target: T28, P6A-bN
T28 chain: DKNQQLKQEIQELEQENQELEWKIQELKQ

P7A-bN = target: T29, P7A-bN
T29 chain: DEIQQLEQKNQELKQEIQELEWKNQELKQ

P8A-bN = target: T30, P8A-bN
T30 chain: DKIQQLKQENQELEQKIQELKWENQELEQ

P9A-bN = target: T31, P9A-bN
T31 chain: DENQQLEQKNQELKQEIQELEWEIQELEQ

4H1544-bA = target: T32, 4H1544-bA
T32 chain: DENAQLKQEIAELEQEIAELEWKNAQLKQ

4H1710-bA = target: T33, 4H1710-bA
T33 chain: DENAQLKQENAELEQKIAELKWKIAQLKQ

4H1899-bA = target: T34, 4H1899-bA
T34 chain: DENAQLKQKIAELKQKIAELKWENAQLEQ

4H1985-bA = target: T35, 4H1985-bA
T35 chain: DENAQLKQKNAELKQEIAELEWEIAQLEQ

4H3162-bA = target: T36, 4H3162-bA
T36 chain: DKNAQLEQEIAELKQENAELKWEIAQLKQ

4H3175-bA = target: T37, 4H3175-bA
T37 chain: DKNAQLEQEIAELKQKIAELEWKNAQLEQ

4H3277-bA = target: T38, 4H3277-bA
T38 chain: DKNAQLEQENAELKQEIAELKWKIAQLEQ

4H3298-bA = target: T39, 4H3298-bA
T39 chain: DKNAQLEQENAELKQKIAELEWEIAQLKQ

4H3462-bA = target: T40, 4H3462-bA
T40 chain: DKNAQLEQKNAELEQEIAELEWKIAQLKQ

4H3497-bA = target: T41, 4H3497-bA
T41 chain: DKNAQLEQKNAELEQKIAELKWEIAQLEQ

4H3613-bA = target: T42, 4H3613-bA
T42 chain: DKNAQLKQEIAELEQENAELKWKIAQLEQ

4H3628-bA = target: T43, 4H3628-bA
T43 chain: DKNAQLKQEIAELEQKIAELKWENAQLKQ

4H3817-bA = target: T44, 4H3817-bA
T44 chain: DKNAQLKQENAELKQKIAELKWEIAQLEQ

4H3858-bA = target: T45, 4H3858-bA
T45 chain: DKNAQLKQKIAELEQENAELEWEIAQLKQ

4H3926-bA = target: T46, 4H3926-bA
T46 chain: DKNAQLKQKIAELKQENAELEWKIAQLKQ

4H3974-bA = target: T47, 4H3974-bA
T47 chain: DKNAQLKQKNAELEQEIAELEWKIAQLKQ

4H570-bA = target: T48, 4H570-bA
T48 chain: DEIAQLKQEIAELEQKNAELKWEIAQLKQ

4H591-bA = target: T49, 4H591-bA
T49 chain: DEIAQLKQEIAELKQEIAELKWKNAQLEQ

4H626-bA = target: T50, 4H626-bA
T50 chain: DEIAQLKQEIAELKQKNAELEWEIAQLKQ

4H850-bA = target: T51, 4H850-bA
T51 chain: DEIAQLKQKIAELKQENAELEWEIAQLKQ

4H906-bA = target: T52, 4H906-bA
T52 chain: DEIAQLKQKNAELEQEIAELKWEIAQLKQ

P4SHb = target: T53, P4SHb
T53 chain: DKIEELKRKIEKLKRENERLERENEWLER

P5SHb = target: T54, P5SHb
T54 chain: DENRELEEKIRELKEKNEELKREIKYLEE

P6SHb = target: T55, P6SHb
T55 chain: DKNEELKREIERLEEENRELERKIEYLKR

P7SHb = target: T56, P7SHb
T56 chain: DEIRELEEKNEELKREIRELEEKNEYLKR

P8SHb = target: T57, P8SHb
T57 chain: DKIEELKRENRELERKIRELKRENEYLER

P9SHb = target: T58, P9SHb
T58 chain: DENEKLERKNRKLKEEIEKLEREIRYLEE

P4A-bA = target: T59, P4A-bA
T59 chain: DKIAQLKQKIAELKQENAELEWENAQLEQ

P5A-bA = target: T60, P5A-bA
T60 chain: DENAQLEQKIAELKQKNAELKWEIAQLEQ

P6A-bA = target: T61, P6A-bA
T61 chain: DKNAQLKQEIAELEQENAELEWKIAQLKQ

P7A-bA = target: T62, P7A-bA
T62 chain: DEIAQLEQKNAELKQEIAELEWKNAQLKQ

P8A-bA = target: T63, P8A-bA
T63 chain: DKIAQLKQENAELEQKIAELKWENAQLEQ

P9A-bA = target: T64, P9A-bA
T64 chain: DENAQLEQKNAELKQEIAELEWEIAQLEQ

interaction score (4H3185-bA): -0.903
interaction score (4H331-bA): -1.49
interaction score (4H3354-bA): -1.03
interaction score (4H338-bA): -1.39
interaction score (4H3427-bA): -0.483
interaction score (4H3782-bA): -1.06
interaction score (4H3843-bA): -0.572
interaction score (4H3855-bA): -0.974
interaction score (4H4001-bA): -0.835
interaction score (4H454-bA): -1.66
interaction score (4H568-bA): -1.72
interaction score (4H607-bA): -1.07
interaction score (4H687-bA): -0.744
interaction score (4H717-bA): -1.46
interaction score (4H72-bA): -1.82
interaction score (4H754-bA): -0.86
interaction score (4H797-bA): -1.99
interaction score (4H883-bA): -1.49
interaction score (4H908-bA): -1.86
interaction score (4H918-bA): -1.76
interaction score (4H953-bA): -1.76
interaction score (4H967-bA): -0.96
interaction score (P3A-bA): -0.564
Binder: DKNAQLEQEIAELKQKNAELEWEIAQLEQ [4H3185-bA]

interaction score (P3A-bN): -1.27
interaction score (P4A-bN): -0.0603
interaction score (P5A-bN): -0.834
interaction score (P5A): -1.29
interaction score (P6A-bN): -0.329
interaction score (P7A-bN): -2.31
interaction score (P8A-bN): -0.172
interaction score (P9A-bN): -0.223
Binder: DKIQQLKQKNQELKQKNQELKWKIQELKQ [P2A-bN]

interaction score (4H1544-bA): 0.00288
interaction score (4H1710-bA): 2.06
interaction score (4H1899-bA): 1.52
interaction score (4H1985-bA): 0.274
interaction score (4H3162-bA): 0.788
interaction score (4H3175-bA): -0.0402
interaction score (4H3277-bA): 0.243
interaction score (4H3298-bA): 0.792
interaction score (4H3462-bA): 0.455
interaction score (4H3497-bA): 0.215
interaction score (4H3613-bA): 0.572
interaction score (4H3628-bA): 0.77
interaction score (4H3817-bA): 0.78
interaction score (4H3858-bA): -0.357
interaction score (4H3926-bA): 0.0381
interaction score (4H3974-bA): 0.562
interaction score (4H570-bA): -0.0902
interaction score (4H591-bA): -0.632
interaction score (4H626-bA): -0.46
interaction score (4H850-bA): 0.322
interaction score (4H906-bA): -0.806
Binder: DENAQLKQEIAELEQEIAELEWKNAQLKQ [4H1544-bA]

interaction score (P4SHb): -0.574
interaction score (P5SHb): -0.773
interaction score (P6SHb): 0.8
interaction score (P7SHb): -1.05
interaction score (P8SHb): -1.17
interaction score (P9SHb): 0.746
Binder: DKIEELKRKIEKLKRENERLERENEWLER [P4SHb]

interaction score (P3A-bN): -1.29
interaction score (P4A-bN): -0.418
interaction score (P5A-bN): -0.827
interaction score (P6A-bN): -0.545
interaction score (P7A-bN): -1.2
interaction score (P8A-bN): -0.492
interaction score (P9A-bN): -2.46
Binder: DEIQQLEQENQELEQENQELEWEIQELEQ [P1A-bN]

interaction score (P3A-bA): -1.12
interaction score (P4A-bA): -1.08
interaction score (P5A-bA): -1.1
interaction score (P6A-bA): -1.21
interaction score (P7A-bA): -0.804
interaction score (P8A-bA): -0.805
interaction score (P9A-bA): -1.21
Binder: DEIAQLEQENAELEQENAELEWEIAQLEQ [P1A-bA]

interaction score (P3A-bA): -0.686
interaction score (P4A-bA): 0.0163
interaction score (P5A-bA): -0.638
interaction score (P6A-bA): 0.426
interaction score (P7A-bA): -0.916
interaction score (P8A-bA): -0.64
interaction score (P9A-bA): 0.702
Binder: DKIAQLKQKNAELKQKNAELKWKIAQLKQ [P2A-bA]

interaction score (P5SHb): -0.373
interaction score (P6SHb): 1.24
interaction score (P7SHb): -0.193
interaction score (P8SHb): 0.218
interaction score (P9SHb): -0.0948
Binder: DENRELEEKIRELKEKNEELKREIKYLEE [P5SHb]

interaction score (P3A-bA): -1.07
interaction score (P4A-bA): 2.18
interaction score (P5A-bA): -0.684
interaction score (P6A-bA): 1.19
interaction score (P7A-bA): -1.05
interaction score (P8A-bA): 0.146
interaction score (P9A-bA): 0.237
Binder: DEIAQLEQEIAELEQKNAELKWKNAQLKQ [P3A-bA]
